T1: mouse FAP (moFAP) expressed on 293FF cells (mouse, UniProt P97321 1-761)
T1 sequence: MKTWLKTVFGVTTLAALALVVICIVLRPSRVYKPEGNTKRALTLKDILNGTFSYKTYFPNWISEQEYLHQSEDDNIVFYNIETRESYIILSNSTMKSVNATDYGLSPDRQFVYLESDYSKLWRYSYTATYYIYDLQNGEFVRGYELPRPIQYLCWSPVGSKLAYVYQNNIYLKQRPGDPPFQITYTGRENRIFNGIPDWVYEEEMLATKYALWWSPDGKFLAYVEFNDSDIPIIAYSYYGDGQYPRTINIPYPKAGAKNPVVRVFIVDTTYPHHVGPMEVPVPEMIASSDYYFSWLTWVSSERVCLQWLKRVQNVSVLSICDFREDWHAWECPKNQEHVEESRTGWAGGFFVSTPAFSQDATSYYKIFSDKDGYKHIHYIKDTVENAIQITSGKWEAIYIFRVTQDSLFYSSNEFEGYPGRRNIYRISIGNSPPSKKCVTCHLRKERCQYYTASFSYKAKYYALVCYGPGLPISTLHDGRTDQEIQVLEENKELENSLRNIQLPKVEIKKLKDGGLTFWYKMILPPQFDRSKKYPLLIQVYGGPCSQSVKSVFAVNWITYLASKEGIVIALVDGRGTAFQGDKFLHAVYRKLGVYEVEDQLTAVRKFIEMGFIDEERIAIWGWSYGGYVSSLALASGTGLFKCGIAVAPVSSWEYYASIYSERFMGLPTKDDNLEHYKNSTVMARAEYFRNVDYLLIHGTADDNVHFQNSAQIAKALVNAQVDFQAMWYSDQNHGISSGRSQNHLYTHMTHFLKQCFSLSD

T2: human FAP (huFAP) expressed on cells (human, UniProt Q12884 1-760)
T2 construct: also called WI-38 cells
T2 sequence: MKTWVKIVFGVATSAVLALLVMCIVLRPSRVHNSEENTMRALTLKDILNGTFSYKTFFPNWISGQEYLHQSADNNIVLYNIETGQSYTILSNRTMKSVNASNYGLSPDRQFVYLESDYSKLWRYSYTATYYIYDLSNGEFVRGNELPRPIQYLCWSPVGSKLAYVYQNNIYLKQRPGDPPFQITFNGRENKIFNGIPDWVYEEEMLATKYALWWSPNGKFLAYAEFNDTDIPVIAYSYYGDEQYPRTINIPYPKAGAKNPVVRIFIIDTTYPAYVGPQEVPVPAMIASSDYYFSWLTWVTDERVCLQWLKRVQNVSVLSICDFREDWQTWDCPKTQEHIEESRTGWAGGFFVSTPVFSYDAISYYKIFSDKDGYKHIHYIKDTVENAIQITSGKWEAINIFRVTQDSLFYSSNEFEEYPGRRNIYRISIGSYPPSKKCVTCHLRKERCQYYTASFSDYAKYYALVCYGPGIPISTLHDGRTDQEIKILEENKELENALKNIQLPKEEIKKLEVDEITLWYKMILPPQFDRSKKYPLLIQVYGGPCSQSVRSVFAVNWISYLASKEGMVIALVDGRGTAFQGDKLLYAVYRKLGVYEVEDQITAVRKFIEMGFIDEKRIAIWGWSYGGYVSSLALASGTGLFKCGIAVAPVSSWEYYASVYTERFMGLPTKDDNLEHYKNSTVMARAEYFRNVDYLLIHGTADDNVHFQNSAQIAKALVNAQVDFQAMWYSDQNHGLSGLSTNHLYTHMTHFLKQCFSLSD

B1: anti-human FAP bivalent monospecific IgG comprising heavy chain variable region SEQ ID NO: 69 (antibody, V domains shown)
VH: EVQLVETGGGLIQPGGSLRLSCAASGFTVSSNYMSWVRQAPGKGLEWVSVIYSGGSTYYADSVKGRFTISRDNSKNTLYLQMNSLRAEDTAVYYCARGPTDAYPYLDYLWGQGTLVTVSS
VL: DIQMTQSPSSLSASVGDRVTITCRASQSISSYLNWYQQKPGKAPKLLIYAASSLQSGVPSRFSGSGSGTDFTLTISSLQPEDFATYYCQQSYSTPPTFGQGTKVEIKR
notes: IgG1 format, common light chain VK1-39/JK1; also called human/mouse cross-reactive FAP IgG
B2: anti-human FAP bivalent monospecific IgG comprising heavy chain variable region SEQ ID NO: 11 (antibody, V domains shown)
VH: EVQLVESGGGLVQPGGSLRLSCAASGFTFSSYAMIWVRQAPGKGLEWVSAISGSGGYTFNADSVKGRFTMSRDNSKNTLYLQMNSLRAEDTAVYYCAKRDGGYEGGAFDIWGQGTLVTVSS
VL: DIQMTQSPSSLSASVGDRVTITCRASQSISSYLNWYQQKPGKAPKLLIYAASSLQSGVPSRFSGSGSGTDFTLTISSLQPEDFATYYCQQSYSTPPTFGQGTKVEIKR
notes: IgG1 format, common light chain VK1-39/JK1

Tests used:
[1] = target: T1, mouse FAP (moFAP) expressed on 293FF …; assay: FACS, 293FF cells transfected with moFAP, IgG at 2.5 ug/ml
Experimental: (§1) The binding of all test and control antibodies to the cells was tested at a single concentration of 2.5 ug/ml. Goat-anti-human IgG F(ab)2-PE (Invitrogen, H10104) was used as secondary antibody (1:100 in FACS buffer). Ab0625 was used at 10 ug/ml and its binding was detected using Ab0250 (Becton Dickinson, 550767) (1:100 in FACS buffer). The FACS buffer containing PBS (Gibco, cat. #10010-015), 0.5% BSA (Thermo Scientific, cat. #37525), and 2 mM EDTA (Invitrogen, cat. #15575-020) was kept ice cold throughout the assay.
(§2) The target cells were harvested, counted, and centrifuged for 5 min at 300 g at 4 °C. Cells were then resuspended in FACS buffer at a concentration of 1×10⁶ cells/ml and transferred (200,000 cells/well) to a U-bottom 96-well FACS plate (BD, cat. #353910). Cells were then centrifuged for 3 min at 300 g at 4° C. and supernatant was discarded. 50 μl of primary antibody solutions were added to the cells, mixed, and incubated for 30 min at 2-8° C. in the dark. Cells were washed by adding 150 μl FACS buffer and centrifuged for 3 min at 300 g at 4° C. Supernatant was discarded, and cells were washed again by adding 200 μl FACS buffer to the plate. Cells were then centrifuged for 3 min at 300 g at 4° C. and afterwards the supernatant was discarded. 50 μl of secondary antibody solutions were added to the cells, mixed, and incubated for 30 min at 2-8° C. in the dark. […]

[2] = target: T2, human FAP (huFAP) expressed on cells; assay: FACS, 293FF cells stably expressing huFAP, IgG at 2.5 ug/ml
Experimental: as §1, §2

Row | Binder | binding result [1] | binding result [2]
1 | B1 | binds | 
2 | B2 |  | binds
